Assay: soluble on expression in E. coli; label from the status in PepcDB or PDB records
With “MKIEVVSALPHSTVHSAVLSRRHRSVICAGPYEVLPLEGCSEPLPSTSTLSELPIECLRLSTDERTIGAATNAILKVADIITGHEVRNLTGHTLPITSLAASKFNPYCWYTGSSDCDWTQWDTRMNPSKIFGSKTPGVVRSIALSPGDRYVAVGTDETIQIFDARQREFIKTFNCSGHALELHPSDVLLSSVGHDRIVRFFCLETFEMISQSDPFLDDIQASAFDTHVMIAATNDSINLLTWEPCCDILTTVPLKNVEKVVNVNANGLDLDFICIGDNTERLEMRTYAIEELLSYSPSHELCGSIYEEDEDVDNSPIDEVKALPELTELSNLPPRSPGLSCEETETSASPVNSSSSHSSPTSPVKPAPVKHRSASQKLPGKSTKTLNPKPAGSTRSVTPVSTKPPRTFGTAKSVIVSSKPSLSGYNNRANPSPSMSDLRTTKSMAGSTTSLLSERAPKKRSTSSRRNQEPITITYIGRPRTPSEGDVASTVSSSTSRNRRPSPSVAKKTSPPSIYAITSSPAKRASSTASGPTARRQNSTSSVTSTTSAKTPVGVWGACIETVHDIGIVAKKENRNIRRLKMLTSRRTSNVDIPPEVCSDEQLVLTATRILSRRNDWSLNSCHAYLPVIIDNIASVDVTNRAIALEGLAAIADTLGERLVKFASMNSHRIGVDVAAEERAEKAKACVQHLRSLVKKRDWYYKQLDEPSILKLDPILELLKKI” the “soluble on expression in E. coli” value was “not soluble”. For “MLKYRDEKDISACGIFGIMDRKGRRFNGKLVIEAMSQMKVRGNGLGAGFAVYGLYKKFKEYYAFHVMIYDKDGREKLEKFLSTNFDIVYVDEIPVNDKAKVIDPPKFMRYFVAPRKKGTEKVLNDDDFVVKKVMYINRAIPGVYVISSGKNMGVFKGVGFPEDIADYFMIEEYKGYIWTAHTRFPTNTPGWWGGAHPFSILDWSVVHNGEISSYGTNKRYLEMYGYYSTLQTDTEVITYIFDLLVRRQGLPIEVVSKILAPPMWEEIDRMPEKEKKFYKALRMVYSPILLNGPWAIIVARHGEMIGLTDRIRLRPLTVAEKKSFLIISSEEAPIRYLFRDVDRIYTPYGGELVVGKLEEDIKKFVGESQ”, the “soluble on expression in E. coli” value was “not soluble”. With “MGSDKIHHHHHHMSTLLQHVNLTEFVDVARQLGLDPYRQLRQAGIRPTALVDPEMRVPAKSVMQLLEDSAQLAGLEDLGLRVAEARELTTLGPLWTVMREGATLRNALGAMARYLHLLNEALDLRLEEVGDTAVVRLEFLVSVDGSMRQSTEFIICLWFRLFKLLSGDAWKPRSVCFTHAAPASLATHRRVFGVPVRFHQDFDGILLSAADLDVAGTTSDTALGRHAREFLDTKLAQSDSTMPDKVRKLVFALLPTGECGAEQVARQLGIDRKTMHRHLAAYGQNYLSVVDAVRVELVTRYLKNNERPLSDVAILMGFSSLSAFSRWFATRYGCSVSAWRRQRTAPEIRR” the “soluble on expression in E. coli” value was “not soluble”. In the case of “MGSDKIHHHHHHMLDITMFSKADSVKGQGVGSAYLELMRLLRTHWQDEFNIKVNRYGRSAVSHYHTVNPMFYLSTFMPNRGRKIGYVHFLPETLEGSLKLPRPFQMIFNRYLISFYKRMDHIVVVNPTFIPKLEAYHIKRADVTYIPNFVSKREFYEMTKAKQLRLRQQYGYDQNKFMIIGTGQIQDRKGVPDFITLAKQNPDIQFVWAGGFSFGRITDGYQELKQVVDNPPANLSFPGIVPREKLVDYYNMADLFLLPSYNELFPMSVLEAFSCGTPVLLRDLDLYRAIIDGYYQAASDVDDMQRQIDQLSHNPAGLQFLHDKAVLAAQD”, the “soluble on expression in E. coli” value was “not soluble”. With “MFSEELEKIDWEETTKTIYSKTESDVLRALGKEHCDVDDFMALISPAAAKYLEPMAQLSKKYTEERFGKTISMFIPLYITNSCTNSCVYCGFHISNPMARTILTPEQIEDEYKAIKKLGPFENLLLVTGENPAKAGVPYLAKALDIAKKYFSNLKIEVMPLKAEEYAELKEHGLNGVICFQETYNKARYNIYHPRGMKSKFEWRVNGFDRMGQAGVHSIGMGVLIGLEEWRTDVTMMAYHLRYLQKKYWKTKYSVNFPRMRPAENGGFQPNVIMNDRELAQLTFAMRIFDHDVDISYSTREPAQIRDNMAGLGVTTMSAESKTEPGGYYTYPQALEQFHVSDERTAVEVEHALKSLGREPVWKDWDVSFDKFTPIR” the “soluble on expression in E. coli” value was “not soluble”. In the case of “KTAFTAEVLAQSFSGEVQKLSSLVLPAEVIIAQSSIPGEGLGIFSKTWIKAGTEMGPFTGRVIAPEHVDICKNNNLMWEVFNEDGTVRYFIDASQEDHRSWMTYIKCARNEQEQNLEVVQIGTSIFYKAIEMIPPDQELLVWYGNSHNTFLGIPGVPGLEEDQKKNKHED”, the “soluble on expression in E. coli” value was “soluble”. For “MSLLFYVAYLGFYIAPTKLVRNKIKSWLLNASEYDFTDIKEGIRLHLNESPFEPPQFIIDAVKMYLSKGNRYQHPDLLEKYRELAAEYSKVEPENIYPSVGADGSIRAIFYNLVEPGDTILTNYPSYSMYSVYSSVRGTKVIKVNLKEDNEWWKENTDDLLAQAEKVELVIIDDPNNPTGSPMLNGKKELIGQLAENTKGFVVIDEAYYEFGGYTVSPYIYDYPNVLVVRTLSKAFSLASYRLGYTIANEEIVKALMKSSTPFDIPLPSLIAGITALENPSYIKDVVNIVNRNREILYQGLKNLNLKVYKSITNFLLIKDNRNLQEMLMRHGIAIRKLYDNFYRITIGTEDQCKMVIDKLGEELENSNSEGHHHHHH”, the “soluble on expression in E. coli” value was “not soluble”. In the case of “MSLFTFKKGLHLPYNKEFTKDKSIEIFKPKKELIFPLSQHIGAPCEPIVEVGQKVLVNEKIADSSAFVSSPIHSSVSGTIKDIREIQSINGSNTQAIIIENDSKYEKYPKENLKYSSKLSLKDVVKLVKDYGIVGLGGATFPCHVKLNVKEDKEIKYIIINAAECEPYLTCDHRVMLEYTEEIIGGLRILLELFPKALIYIGIEDNKLNAIDKFKSILGEDNKIKVMPLKSKYPQGSEKHLIYALTKLQVPSGKLPLDIGCIAFNVSTIYQLYASLINGLPLTERIITVTGDSIRSPKNLRVKIGTQVKDIIEFCGGFINKPNKIILGGPMMGTSVNSLDLPITKGTSGILCLSKVDTSPNSHCIRCGKCLNSCPMNLIPQKLNELALKDKFDEFEFLGGMDCLECGCCTFSCPAKISIVNNIRNAKKSLRNKSKNLEHHHHHH”, the “soluble on expression in E. coli” value was “soluble”. For “MAQFTEEEKTIRRIEKRFNKGMVQYGLIEEGDKVLVGLSGGKDSLALVELLGKRSHIFKPRFSVVAVHVVMKNIPYQSDWDYLREHAEKNGVPLVVYETSFDPSTDTRKSPCFLCSWNRRKALFTVAKEQGCNKIALGHHMDDILETLLMNITYQGAFSTMPPRLVMNKFDMTIIRPMCLVHEADLLELAQIRGYRKQVKNCPYESQSSRSDMKGILRQLEKMNPEARYSLWGSMTNVQEELLPKEVEF”, the “soluble on expression in E. coli” value was “not soluble”. For “MGPLPRKGNMKQKITDYLDEIYGGTFTATHLQKLVTRLESAKRLITQRRKKHWDESDVVLITYADQFHSNDLKPLPTFNQFYHQWLQSIFSHVHLLPFYPWSSDDGFSVIDYHQVASEAGEWQDIQQLGECSHLMFDFVCNHMSAKSEWFKNYLQQHPGFEDFFIAVDPQTDLSAVTRPRALPLLTPFQMRDHSTRHLWTTFSDDQIDLNYRSPEVLLAMVDVLLCYLAKGAEYVRLDAVGFMWKEPGTSCIHLEKTHLIIKLLRSIIDNVAPGTVIITETNVPHKDNIAYFGAGDDEAHMVYQFSLPPLVLHAVQKQNVEALCAWAQNLTLPSSNTTWFNFLASHDGIGLNPLRGLLPESEILELVEALQQEGALVNWKNNPDGTRSPYEINVTYMDALSRRESSDEERCARFILAHAILLSFPGVPAIYIQSILGSRNDYAGVEKLGYNRAINRKKYHSKEITRELNDEATLRHAVYHELSRLITLRRSHNEFHPDNNFTIDTINSSVMRIPRSNADGNCLTGLFNVSKNIQHVNITNLHGRDLISEVDILGNEITLRPWQVMWIK”, the “soluble on expression in E. coli” value was “not soluble”. For “GPGSMPVEQLEEENKTLRTKVRVLEEELKHRNAECVRLRDELQLLSGVMRENDSQRQLIDTLREELEFSRKSHAEAVEALNVGEKQRRNEEHRQRMARVQLQLSTSGMDVKTGTSSQAGGAVLPVVTGGVVPTSSGVEIICKSSNISSLGFAPVQRPPDFAGSAYGQFYRGVANSADLVEEEDEVSRLMAMAKDGAMLDIKHAEVTDGEENELLERYKALKLWKPN”, the “soluble on expression in E. coli” value was “not soluble”. With “ENLKLGFLVAQPEEPASQTQWKFADKAGKDLGFEVIKIAVPDGEKTLNAIDSLAASGAKGFVISTPDPKLGSAIVAKARGYDMKVIAVDNQFVNAKGKPMDTVPLVMEAATKIGERQGQELYKEMQKRGWDVKESAVMAITANELDTARRRTTGSMDALKAAGFPEKQIYQVPTKSEDIPGAFDAANSMLVQHPEVKHWLIVGMNDSTVLGGVRATEGQGFKAADIIGIGINGVDAVSELSKAQATGFYGSLLPSPDVHGYKSSEMLYNWVAKDVEPPKFTEVTDVVLITRDNFKEECEKKGLGGK” the “soluble on expression in E. coli” value was “soluble”. For “MKMQTYYYVLASRRFLLQEEPIEEVLKERTRHYHEQEKEIDFWLVPQPAFLEAPEFADIKAKCPQPAAAIISTNSQFITWLKLRLEYVVTGEFSAPSETIPNPLASLATASLEHHHHHH”, the “soluble on expression in E. coli” value was “soluble”. With “MSLEKKFVIWGRNPIIEALRAGRNLEKIYVAHDSHPPKELLELAKKRGVKVQRISRKKVEELAGTKKTQGVVALLSPVNYVSPHELFKECIEKKSFFIVIDHITDPQNVGNLLRTCEVLGGVGALISKDRTSPINETVVKASSGAVFHLKISKVSSLSRELKNFQKMGGWVFAVEKGGKDIREVDIPLPVALVLGSEDKGVSKSVLDISDQIVTIPMKGKVTSLNVGSAGAIAMWETAKKILEGHHHHHH” the “soluble on expression in E. coli” value was “soluble”. With “GPGSMDVYRQAAEIVGIVREGNGTAKALCLRKDMQKKKQTYAVVCETLRHYELLEDVLEVAEFFKYYPQANHEFAMCMAYDVVLGKGVNTHNDSTARAVSHSASYLREAYWQVRKHHVIPPRSSEKLDDEVAADTEGGARGKRRSGDSVSSSPSLQLPRYARVNTLKISVEELVSRLRRSAEVRKRARDAKDNDGDAAASSHPQQQNGDKRATRRASSRPHRPLPEFTQDPVVPHLLVFPPGTDLHAHPAVRSGQLILQDRASCLPAAVLLDAVPVEVIEGDTAGSSKGRKKAKGGTALGKEKGRGNETDAAARRPLEYVVDACAAPGNKTTQLAALGAPHIKIMATERDERRADLLSKRVASLGAADYVNVVSMDFFQLSSDDRAATEGILLDPSCSASGVMTRVDVALQHHHHHHHEQQRKGKARQADRRVSLLQGSRRGSHHEDADRNAAEEGQLDDGDREETANSGAINPAAQGNEFSMKEERVEKLARLQRKLLAHSLLSFDNCRTVVYSTCSVHEEENEEVVRQVLDDERVKARGWRLSNIMPNTWKTRGAEREGEEHPLRFTIRCDPATEATNGFYVARFDRVC” the “soluble on expression in E. coli” value was “soluble”. With “MSLSKVLYIQDHDVTWIQFNRPEKRNAIDEETMDQFAEALAQAKGDQSKVIIVTGAGEKAFCAGGDLSSFHKLKTESEAKAMLAKMAKILLDVYYCPKLTVAALNGAAVGGGCEIAAACDIRLAAPHSKFGFIQGTLGITTGWGGTSFLMTRVQPHVSLEMTMTGKVYSSDVGENLGFIQKVIQKIPFREGVKEWLGLYTVLDQEVLIAYKERHLDRISRKELIWRIEREVAKCAQLWERDAHHEAVDAFLREGHHHHHH” the “soluble on expression in E. coli” value was “soluble”. For FNRGGYNFGKSVRHVVDAIGSVAGIRGILKSIR, the “soluble on expression in E. coli” value was “soluble”. With “MAFSIMGILTIMEFLVYRDTRMKYEYEVDKDFTSKIRLNIDITVAMKCQYVGADVLDLAETMVTSAQGLAYQPVSLCSRTISNTSCGVSGKLWIQSTENVKVVTDAVSLVPNRLNSCSAGDI” the “soluble on expression in E. coli” value was “not soluble”. In the case of “MRGSHHHHHHTDPALRAKRAVVVFSGGQDSTTCLVQALQQYDEVHCVTFDYGQRHRAEIDVARELALKLGARAHKVLDVTLLNELAVSSLTRDSIPVPDYEPEADGIPNTFVPGRNILFLTLAAIYAYQVKAEAVITGVCETDFSGYPDCRDEFVKALNHAVSLGMAKDIRFETPLMWIDKAETWALADYYGKLDLVRNETLTCYNGFKGDGCGHCAACNLRANGLNHYLADKPTVMAAMKQKTGLRGLCGR”, the “soluble on expression in E. coli” value was “soluble”.

From the DeepSol protein solubility set
